{
  "source": "patent US20220177604A1",
  "about": "(ARGENX, published 2022)",
  "data": [
    {"biological_target": "T1, human immunoglobulin E (hIgE) (human, UniProt P01854-1 1-428)", "T1 construct": "also called human IgE; Native IgE (Abcam)", "T1 sequence (P01854 whole entry)": "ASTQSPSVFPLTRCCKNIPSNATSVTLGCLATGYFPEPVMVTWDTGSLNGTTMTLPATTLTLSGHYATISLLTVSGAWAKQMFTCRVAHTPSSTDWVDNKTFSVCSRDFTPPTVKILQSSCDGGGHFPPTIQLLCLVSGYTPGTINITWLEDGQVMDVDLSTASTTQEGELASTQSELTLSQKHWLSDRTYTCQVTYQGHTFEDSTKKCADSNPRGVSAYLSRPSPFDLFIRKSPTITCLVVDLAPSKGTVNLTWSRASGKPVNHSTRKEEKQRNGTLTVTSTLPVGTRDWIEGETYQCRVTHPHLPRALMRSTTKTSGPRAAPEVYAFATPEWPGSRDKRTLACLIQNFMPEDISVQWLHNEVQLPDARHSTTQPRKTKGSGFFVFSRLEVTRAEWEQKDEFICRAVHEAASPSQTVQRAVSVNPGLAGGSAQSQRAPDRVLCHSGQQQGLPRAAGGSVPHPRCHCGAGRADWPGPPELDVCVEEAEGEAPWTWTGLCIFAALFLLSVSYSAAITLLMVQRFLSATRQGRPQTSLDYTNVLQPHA", "assay": "SPR (Biacore) on hIgE", "procedure": "The ratio of KD measured at pH 5.5 versus KD measured at pH 7.4 was calculated for each of the CL-2C antibodies.", "values": [
      {"binder": "CL-2C mAb 16 (antibody, V domains shown, also called VK50H92D94H + VH58H100BH) VH: QVQLVQSGAEVMKPGSSVKVSCKASGYTFSWYWLEWVRQAPGHGLEWMGEIDPGTFTTHYNEKFKARVTFTADTSTSTAYMELSSLRSEDTAVYYCARFSHFSGSHYDYFDYWGQGTLVTVSS VL: EIVMTQSPATLSVSPGERATLSCRASQSIGTNIHWYQQKPGQAPRLLIYHASESISGIPARFSGSGSGTEFTLTISSLQSEDFAVYYCQQSDSHPTTFGGGTKVEIK", "KD Ratio pH 5.5/pH 7.4": 4.7},
      {"binder": "CL-2C mAb 35 (antibody, V domains shown, also called VK94H + VHWT) VH: QVQLVQSGAEVMKPGSSVKVSCKASGYTFSWYWLEWVRQAPGHGLEWMGEIDPGTFTTNYNEKFKARVTFTADTSTSTAYMELSSLRSEDTAVYYCARFSHFSGSNYDYFDYWGQGTLVTVSS VL: EIVMTQSPATLSVSPGERATLSCRASQSIGTNIHWYQQKPGQAPRLLIYYASESISGIPARFSGSGSGTEFTLTISSLQSEDFAVYYCQQSWSHPTTFGGGTKVEIK", "KD Ratio pH 5.5/pH 7.4": 0.6},
      {"binder": "CL-2C mAb 38 (antibody, V domains shown, also called VKWT + VH33H100BH) VH: QVQLVQSGAEVMKPGSSVKVSCKASGYTFSWYHLEWVRQAPGHGLEWMGEIDPGTFTTNYNEKFKARVTFTADTSTSTAYMELSSLRSEDTAVYYCARFSHFSGSHYDYFDYWGQGTLVTVSS VL: EIVMTQSPATLSVSPGERATLSCRASQSIGTNIHWYQQKPGQAPRLLIYYASESISGIPARFSGSGSGTEFTLTISSLQSEDFAVYYCQQSWSWPTTFGGGTKVEIK", "KD Ratio pH 5.5/pH 7.4": 6.5},
      {"binder": "CL-2C mAb 26 (antibody, V domains shown, also called VK50H + VH58H100BH) VH: QVQLVQSGAEVMKPGSSVKVSCKASGYTFSWYWLEWVRQAPGHGLEWMGEIDPGTFTTHYNEKFKARVTFTADTSTSTAYMELSSLRSEDTAVYYCARFSHFSGSHYDYFDYWGQGTLVTVSS VL: EIVMTQSPATLSVSPGERATLSCRASQSIGTNIHWYQQKPGQAPRLLIYHASESISGIPARFSGSGSGTEFTLTISSLQSEDFAVYYCQQSWSWPTTFGGGTKVEIK", "KD Ratio pH 5.5/pH 7.4": 8.9},
      {"binder": "CL-2C mAb 39 (antibody, V domains shown, also called VKWT + VH33H100AH) VH: QVQLVQSGAEVMKPGSSVKVSCKASGYTFSWYHLEWVRQAPGHGLEWMGEIDPGTFTTNYNEKFKARVTFTADTSTSTAYMELSSLRSEDTAVYYCARFSHFSGHNYDYFDYWGQGTLVTVSS VL: EIVMTQSPATLSVSPGERATLSCRASQSIGTNIHWYQQKPGQAPRLLIYYASESISGIPARFSGSGSGTEFTLTISSLQSEDFAVYYCQQSWSWPTTFGGGTKVEIK", "KD Ratio pH 5.5/pH 7.4": 4.6},
      {"binder": "CL-2C mAb 28 (antibody, V domains shown, also called VK50H + VH33H100BH) VH: QVQLVQSGAEVMKPGSSVKVSCKASGYTFSWYHLEWVRQAPGHGLEWMGEIDPGTFTTNYNEKFKARVTFTADTSTSTAYMELSSLRSEDTAVYYCARFSHFSGSHYDYFDYWGQGTLVTVSS VL: EIVMTQSPATLSVSPGERATLSCRASQSIGTNIHWYQQKPGQAPRLLIYHASESISGIPARFSGSGSGTEFTLTISSLQSEDFAVYYCQQSWSWPTTFGGGTKVEIK", "KD Ratio pH 5.5/pH 7.4": 9},
      {"binder": "CL-2C mAb 40 (antibody, V domains shown, also called VKWT + VHWT) VH: QVQLVQSGAEVMKPGSSVKVSCKASGYTFSWYWLEWVRQAPGHGLEWMGEIDPGTFTTNYNEKFKARVTFTADTSTSTAYMELSSLRSEDTAVYYCARFSHFSGSNYDYFDYWGQGTLVTVSS VL: EIVMTQSPATLSVSPGERATLSCRASQSIGTNIHWYQQKPGQAPRLLIYYASESISGIPARFSGSGSGTEFTLTISSLQSEDFAVYYCQQSWSWPTTFGGGTKVEIK", "KD Ratio pH 5.5/pH 7.4": 0.6},
      {"binder": "CL-2C mAb 18 (antibody, V domains shown, also called VK50H92D94H + VH33H100BH) VH: QVQLVQSGAEVMKPGSSVKVSCKASGYTFSWYHLEWVRQAPGHGLEWMGEIDPGTFTTNYNEKFKARVTFTADTSTSTAYMELSSLRSEDTAVYYCARFSHFSGSHYDYFDYWGQGTLVTVSS VL: EIVMTQSPATLSVSPGERATLSCRASQSIGTNIHWYQQKPGQAPRLLIYHASESISGIPARFSGSGSGTEFTLTISSLQSEDFAVYYCQQSDSHPTTFGGGTKVEIK", "KD Ratio pH 5.5/pH 7.4": 0.2},
      {"binder": "CL-2C mAb 20 (antibody, V domains shown, also called VK50H92D94H + VHWT) VH: QVQLVQSGAEVMKPGSSVKVSCKASGYTFSWYWLEWVRQAPGHGLEWMGEIDPGTFTTNYNEKFKARVTFTADTSTSTAYMELSSLRSEDTAVYYCARFSHFSGSNYDYFDYWGQGTLVTVSS VL: EIVMTQSPATLSVSPGERATLSCRASQSIGTNIHWYQQKPGQAPRLLIYHASESISGIPARFSGSGSGTEFTLTISSLQSEDFAVYYCQQSDSHPTTFGGGTKVEIK", "KD Ratio pH 5.5/pH 7.4": 1.1},
      {"binder": "CL-2C mAb 36 (antibody, V domains shown, also called VKWT + VH58H100BH) VH: QVQLVQSGAEVMKPGSSVKVSCKASGYTFSWYWLEWVRQAPGHGLEWMGEIDPGTFTTHYNEKFKARVTFTADTSTSTAYMELSSLRSEDTAVYYCARFSHFSGSHYDYFDYWGQGTLVTVSS VL: EIVMTQSPATLSVSPGERATLSCRASQSIGTNIHWYQQKPGQAPRLLIYYASESISGIPARFSGSGSGTEFTLTISSLQSEDFAVYYCQQSWSWPTTFGGGTKVEIK", "KD Ratio pH 5.5/pH 7.4": 4.3},
      {"binder": "CL-2C mAb 27 (antibody, V domains shown, also called VK50H + VH33H100CH) VH: QVQLVQSGAEVMKPGSSVKVSCKASGYTFSWYHLEWVRQAPGHGLEWMGEIDPGTFTTNYNEKFKARVTFTADTSTSTAYMELSSLRSEDTAVYYCARFSHFSGSNHDYFDYWGQGTLVTVSS VL: EIVMTQSPATLSVSPGERATLSCRASQSIGTNIHWYQQKPGQAPRLLIYHASESISGIPARFSGSGSGTEFTLTISSLQSEDFAVYYCQQSWSWPTTFGGGTKVEIK", "KD Ratio pH 5.5/pH 7.4": 7.4},
      {"binder": "CL-2C mAb 31 (antibody, V domains shown, also called VK94H + VH58H100BH) VH: QVQLVQSGAEVMKPGSSVKVSCKASGYTFSWYWLEWVRQAPGHGLEWMGEIDPGTFTTHYNEKFKARVTFTADTSTSTAYMELSSLRSEDTAVYYCARFSHFSGSHYDYFDYWGQGTLVTVSS VL: EIVMTQSPATLSVSPGERATLSCRASQSIGTNIHWYQQKPGQAPRLLIYYASESISGIPARFSGSGSGTEFTLTISSLQSEDFAVYYCQQSWSHPTTFGGGTKVEIK", "KD Ratio pH 5.5/pH 7.4": 5.5},
      {"binder": "CL-2C mAb 30 (antibody, V domains shown, also called VK50H + VHWT) VH: QVQLVQSGAEVMKPGSSVKVSCKASGYTFSWYWLEWVRQAPGHGLEWMGEIDPGTFTTNYNEKFKARVTFTADTSTSTAYMELSSLRSEDTAVYYCARFSHFSGSNYDYFDYWGQGTLVTVSS VL: EIVMTQSPATLSVSPGERATLSCRASQSIGTNIHWYQQKPGQAPRLLIYHASESISGIPARFSGSGSGTEFTLTISSLQSEDFAVYYCQQSWSWPTTFGGGTKVEIK", "KD Ratio pH 5.5/pH 7.4": 1},
      {"binder": "CL-2C mAb 34 (antibody, V domains shown, also called VK94H + VH33H100AH) VH: QVQLVQSGAEVMKPGSSVKVSCKASGYTFSWYHLEWVRQAPGHGLEWMGEIDPGTFTTNYNEKFKARVTFTADTSTSTAYMELSSLRSEDTAVYYCARFSHFSGHNYDYFDYWGQGTLVTVSS VL: EIVMTQSPATLSVSPGERATLSCRASQSIGTNIHWYQQKPGQAPRLLIYYASESISGIPARFSGSGSGTEFTLTISSLQSEDFAVYYCQQSWSHPTTFGGGTKVEIK", "KD Ratio pH 5.5/pH 7.4": 3},
      {"binder": "CL-2C mAb 33 (antibody, V domains shown, also called VK94H + VH33H100BH) VH: QVQLVQSGAEVMKPGSSVKVSCKASGYTFSWYHLEWVRQAPGHGLEWMGEIDPGTFTTNYNEKFKARVTFTADTSTSTAYMELSSLRSEDTAVYYCARFSHFSGSHYDYFDYWGQGTLVTVSS VL: EIVMTQSPATLSVSPGERATLSCRASQSIGTNIHWYQQKPGQAPRLLIYYASESISGIPARFSGSGSGTEFTLTISSLQSEDFAVYYCQQSWSHPTTFGGGTKVEIK", "KD Ratio pH 5.5/pH 7.4": 7},
      {"binder": "CL-2C mAb 32 (antibody, V domains shown, also called VK94H + VH33H100CH) VH: QVQLVQSGAEVMKPGSSVKVSCKASGYTFSWYHLEWVRQAPGHGLEWMGEIDPGTFTTNYNEKFKARVTFTADTSTSTAYMELSSLRSEDTAVYYCARFSHFSGSNHDYFDYWGQGTLVTVSS VL: EIVMTQSPATLSVSPGERATLSCRASQSIGTNIHWYQQKPGQAPRLLIYYASESISGIPARFSGSGSGTEFTLTISSLQSEDFAVYYCQQSWSHPTTFGGGTKVEIK", "KD Ratio pH 5.5/pH 7.4": 6.2},
      {"binder": "CL-2C mAb 19 (antibody, V domains shown, also called VK50H92D94H + VH33H100AH) VH: QVQLVQSGAEVMKPGSSVKVSCKASGYTFSWYHLEWVRQAPGHGLEWMGEIDPGTFTTNYNEKFKARVTFTADTSTSTAYMELSSLRSEDTAVYYCARFSHFSGHNYDYFDYWGQGTLVTVSS VL: EIVMTQSPATLSVSPGERATLSCRASQSIGTNIHWYQQKPGQAPRLLIYHASESISGIPARFSGSGSGTEFTLTISSLQSEDFAVYYCQQSDSHPTTFGGGTKVEIK", "KD Ratio pH 5.5/pH 7.4": 5.2},
      {"binder": "CL-2C mAb 29 (antibody, V domains shown, also called VK50H + VH33H100AH) VH: QVQLVQSGAEVMKPGSSVKVSCKASGYTFSWYHLEWVRQAPGHGLEWMGEIDPGTFTTNYNEKFKARVTFTADTSTSTAYMELSSLRSEDTAVYYCARFSHFSGHNYDYFDYWGQGTLVTVSS VL: EIVMTQSPATLSVSPGERATLSCRASQSIGTNIHWYQQKPGQAPRLLIYHASESISGIPARFSGSGSGTEFTLTISSLQSEDFAVYYCQQSWSWPTTFGGGTKVEIK", "KD Ratio pH 5.5/pH 7.4": 3.8},
      {"binder": "CL-2C mAb 17 (antibody, V domains shown, also called VK50H92D94H + VH33H100CH) VH: QVQLVQSGAEVMKPGSSVKVSCKASGYTFSWYHLEWVRQAPGHGLEWMGEIDPGTFTTNYNEKFKARVTFTADTSTSTAYMELSSLRSEDTAVYYCARFSHFSGSNHDYFDYWGQGTLVTVSS VL: EIVMTQSPATLSVSPGERATLSCRASQSIGTNIHWYQQKPGQAPRLLIYHASESISGIPARFSGSGSGTEFTLTISSLQSEDFAVYYCQQSDSHPTTFGGGTKVEIK", "KD Ratio pH 5.5/pH 7.4": 7.1}
    ]},
    {"biological_target": "T1, human immunoglobulin E (hIgE)", "assay": "competition ELISA, hIgE to hFcεRIα", "units": {"IC50": "nM"}, "values": [
      {"binder": "OmaVH15G55HW100b - VL3D28HS31H (antibody, V domains shown, human IgG1) VH: EVQLVESGGGLVQPGGSLRLSCAVSGYSITSGHRWEWIRQAPGKGLEWVASIHYDHSTNYNPSVKGRITISRDDSKNTFYLQMNSLRAEDTAVYYCARATHYFGHHHFAVWGQGTLVTVSS VL: DIQLTQSPSSLSASVGDRVTITCRASQSVDYHGDHYMNWYQQKPGKAPKLLIEWGSYLRSGVPSRFSGSGSGTDFTLTISSLQPEDFATYYCQQNAEDPYTFGQGTKVEIK", "IC50": 9.49}
    ]},
    {"biological_target": "T1, human immunoglobulin E (hIgE)", "assay": "SPR (Biacore), pH 7.4", "units": {"koff": "s⁻¹"}, "values": [
      {"binder": "OmaVH15G55HW100b - VL3D28HS31H (antibody, V domains shown, human IgG1) VH: EVQLVESGGGLVQPGGSLRLSCAVSGYSITSGHRWEWIRQAPGKGLEWVASIHYDHSTNYNPSVKGRITISRDDSKNTFYLQMNSLRAEDTAVYYCARATHYFGHHHFAVWGQGTLVTVSS VL: DIQLTQSPSSLSASVGDRVTITCRASQSVDYHGDHYMNWYQQKPGKAPKLLIEWGSYLRSGVPSRFSGSGSGTDFTLTISSLQPEDFATYYCQQNAEDPYTFGQGTKVEIK", "koff": 0.00356}
    ]}
  ]
}
